{"source": "paper PMC8552709", "about": "“Mechanistic Insights into the Capsule-Targeting Depolymerase from a Klebsiella pneumoniae Bacteriophage” (Microbiology Spectrum, 2021)", "molecular_target": "the molecule itself", "assay": "SEC; HiLoad 16/600 Superdex 200-pg column, 25 mM Tris (pH 8.0), 200 mM NaCl; peak checked by reducing SDS-PAGE", "data": [{"protein": "DpK2 (gp02), capsule depolymerase / tailspike protein of Klebsiella phage RAD2 (enzyme, UniProt P0DTN8 1-907, looked up, DpK2, product of gp02 of Klebsiella phage RAD2 (genome GenBank MW655991); 98 kDa; the open reading frame was cloned between NcoI and XhoI of pPROEX htb; residues 191 to 906 are modelled in the cryo-EM structure; Homotrimer; The forward primer ([residues removed]) reads M-G-A-L-Y-R-E-G-K, so the NcoI site may add a glycine after the first methionine; no removal of the His tag is described; also …) MALYREGKAAMAADGTVTGTGTKWQSSLSLIRPGATIMFLSSPIQMAVVNKVVSDTEIKAITTSGAVVASTDYAILLSDSLTVDGLAQDVAETLRHYQSQETVIADAVEFFKSFDFDSLQNLANQIKADSESAESSAAAAAASESKAKTSEDNAKSSENAAKNSEVAAETTRDQIQQIIDNAGDQSTLVVLAQPDGFDSIGRVSSFAALRNLKPKKSGQHVLLTSYYDGWAAENKMPTGGGEFISSIGTATDDGGYIAAGPGYYWTRVVNNNSFTAEDFGCKTTATPPPNFNVLPAELFDNTAMMQAAFNLAISKSFKLNLSTGTYYFESSDTLRITGPIHIEGRPGTVFYHNPSNKANPKTDAFMNISGCSAGRISSINCFSNSYLGKGINFDRSVGDNRKLVLEHVYVDTFRWGFYVGEPECINQIEFHSCRAQSNYFQGIFIESFKEGQEYGHSAPVHFFNTICNGNGPTSFALGATYKTTKNEYIKVMDSVNDVGCQAYFQGLSNVQYIGGQLSGHGSPRNTSLATITQCNSFIIYGTDLEDINGFTTDGTAITADNIDAIESNYLKDISGAAIVVSSCPGFKIDSPHIFKIKTLSTIKLMNNTYNYEIGGFTPDEALKYNVWDANGLATNRISGVIHPRLVNSRLGINSVAFDNMSNKLDVSSLIHNETSQIVGLTPSTGSNVPHTRKMWSNGAMYSSTDLNNGFRLNYLSNHNEPLTPMHLYNEFSVSEFGGSVTESNALDEIKYIFIQTTYANSGDGRFIIQALDASGSVLSSNWYSPQSFNSTFPISGFVRFDVPTGAKKIRYGFVNSANYTGSLRSHFMSGFAYNKRFFLKIYAVYNDLGRYGQFEPPYSVAIDRFRVGDNTTQMPSIPASSATDVAGVNEVINSLLASLKANGFMSS", "values": [{"measurement": "stoichiometry N", "result": 3}]}]}
